Data from PMC11372834.

Biological target: human RXFP1 (human) (UniProt Q9HBX9)
Chain of UniProt Q9HBX9 (Q9HBX9 whole entry): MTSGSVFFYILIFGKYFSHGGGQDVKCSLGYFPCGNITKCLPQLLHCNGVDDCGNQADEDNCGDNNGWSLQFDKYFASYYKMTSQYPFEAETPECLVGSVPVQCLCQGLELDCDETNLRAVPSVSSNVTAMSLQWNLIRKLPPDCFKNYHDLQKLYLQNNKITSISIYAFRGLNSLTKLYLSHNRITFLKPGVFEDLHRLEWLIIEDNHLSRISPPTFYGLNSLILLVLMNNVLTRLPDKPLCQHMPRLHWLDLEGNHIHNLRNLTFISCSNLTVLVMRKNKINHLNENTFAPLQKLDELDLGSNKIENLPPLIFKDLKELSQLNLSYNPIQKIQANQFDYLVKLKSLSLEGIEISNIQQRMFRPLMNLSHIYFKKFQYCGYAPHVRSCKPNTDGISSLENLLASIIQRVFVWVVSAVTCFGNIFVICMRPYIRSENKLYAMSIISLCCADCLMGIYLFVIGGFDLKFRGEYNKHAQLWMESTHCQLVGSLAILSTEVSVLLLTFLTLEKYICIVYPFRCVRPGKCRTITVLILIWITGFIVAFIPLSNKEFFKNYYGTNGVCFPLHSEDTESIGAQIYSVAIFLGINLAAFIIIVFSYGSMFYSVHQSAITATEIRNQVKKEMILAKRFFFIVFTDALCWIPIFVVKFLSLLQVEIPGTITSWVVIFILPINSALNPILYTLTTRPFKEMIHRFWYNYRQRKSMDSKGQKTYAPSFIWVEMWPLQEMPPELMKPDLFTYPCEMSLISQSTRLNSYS

Substance: native relaxin-2 (ligand)
- EC50, Gs signaling (CRE-SEAP, Figure 1c and Table S1): 0.1 nM
